Our source for the MFI, binding result and Kd values is patent publication US20240132603A1 (HARBOUR BIOMED US, published 2024).

Assay [1] has as its target T1, MMP16 (UniProt P51512 120-607).
T1 construct: whole, on cells; also called HEK293-MMP16
In words: flow cytometry, HEK293-MMP16 cells. (In general: Flow cytometry measures light scatter and fluorescence of single cells or particles in a stream.)

In assay [2] the target is T2, CD40LG (UniProt P29965 1-261).
T2 construct: whole, on cells; also called HEK293-CD40LG
T2 sequence (looked up): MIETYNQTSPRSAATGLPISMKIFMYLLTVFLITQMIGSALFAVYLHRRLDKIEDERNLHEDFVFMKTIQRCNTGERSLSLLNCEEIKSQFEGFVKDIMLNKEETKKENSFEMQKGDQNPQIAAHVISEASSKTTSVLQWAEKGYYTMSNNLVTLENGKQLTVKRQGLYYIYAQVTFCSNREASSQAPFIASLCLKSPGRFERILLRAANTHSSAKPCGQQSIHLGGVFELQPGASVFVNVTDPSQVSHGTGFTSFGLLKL
Nature of the assay: flow cytometry, HEK293-CD40LG cells.

For another assay, the target named is T3, TSPAN4-FLAG (UniProt O14817 1-238, limits assumed).
T3 construct: whole, on cells; order of protein and tag unknown; also called HEK293-TSPAN4; not shown: FLAG tag
T3 sequence (looked up): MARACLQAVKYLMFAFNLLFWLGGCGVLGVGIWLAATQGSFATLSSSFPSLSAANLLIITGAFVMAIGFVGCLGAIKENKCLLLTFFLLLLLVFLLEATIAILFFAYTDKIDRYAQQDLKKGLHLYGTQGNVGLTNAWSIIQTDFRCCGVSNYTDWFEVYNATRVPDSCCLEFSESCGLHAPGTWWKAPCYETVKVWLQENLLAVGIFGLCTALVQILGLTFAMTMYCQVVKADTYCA
In words: flow cytometry, transfected HEK293 cells. The text has this: (§1) After that, HEK293 cells were transfected with commercial MMP16 (protein information can be found under Uniprot P51512), CD40LG (protein information can be found under Uniprot P29965), CD147 (protein information can be found under Uniprot P35612), TSPAN4 (protein information can be found under Uniprot 014817), and TSPAN12 (protein information can be found under Uniprot 095859) plasmids for further verification of the binding of PR005565, PR006275 and PR006276 to these proteins. […] However, the binding values of PR005565, PR006275 and PR006276 to MMP16, CD40LG, CD147, TSPAN4 and TSPAN12 after transfection of HEK293 cells were all consistent with the signal values of HEK293 cells themselves. Thus, PR005565, PR006275 and PR006276 had no non-specific binding to MMP16, CD40LG, CD147, TSPAN4 and TSPAN12 proteins (see Table 50).

The target of assay [3] is T4, TSPAN12-FLAG (UniProt O95859 1-305).
T4 construct: whole, on cells; order of protein and tag unknown; also called HEK293-TSPAN12; not shown: FLAG tag
T4 sequence (looked up): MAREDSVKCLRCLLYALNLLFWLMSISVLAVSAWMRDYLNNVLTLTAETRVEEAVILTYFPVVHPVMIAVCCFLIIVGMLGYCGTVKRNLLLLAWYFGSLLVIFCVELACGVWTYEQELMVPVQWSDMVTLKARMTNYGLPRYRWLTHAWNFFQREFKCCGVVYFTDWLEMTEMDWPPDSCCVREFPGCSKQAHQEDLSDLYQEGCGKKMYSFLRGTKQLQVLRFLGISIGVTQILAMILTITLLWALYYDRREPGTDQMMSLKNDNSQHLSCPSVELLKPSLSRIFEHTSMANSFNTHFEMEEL
Nature of the assay: flow cytometry, transfected HEK293 cells.
From the text: as §1

In assay [4] the target is T1, MMP16. Nature of the assay: flow cytometry, transfected HEK293 cells.
From the text: as §1

The target in assay [5] is T2, CD40LG. In words: flow cytometry, transfected HEK293 cells.
From the text: as §1

Assay [6] has as its target T4, TSPAN12-FLAG. Nature of the assay: flow cytometry, HEK293-TSPAN12 cells.
From the text: as §1

For the next assay, the target named is T5, human CCR8 (human, UniProt P51685 1-355).
T5 construct: whole, on cells; construct used for the overexpressing cell lines is not described; also called hCCR8
Nature of the assay: KinExA, cell line overexpressing human CCR8; human CCR8 cell line. As to the method:
To 200 mg of PMMA hard beads was added 30 μg of Goat Anti-Human IgG Fc antibody, and the mixture was supplemented with a coating solution to 1.0 mL, with a buffer composition of 1×PBS, pH7.4, to ensure that the beads were completely suspended in the solution. After being spun at room temperature for 2 h, the beads were either allowed to settle naturally or centrifuged briefly at low speed, and the supernatant was removed. 1 mL of blocking buffer (1×PBS, pH7.4, containing 10 mg/mL BSA) was added to ensure that the beads were resuspended in the blocking solution, and the beads were spun at room temperature for 1 h. An appropriate concentration of PR005565, PR006155 or PR006166 was used as the 100% signal value, and PBS blank was used as the background value. The net signal values were detected using 0.5 μg/mL Alexa Fluor® 647 Goat Anti-Human IgG. The cell line overexpressing human or monkey CCR8 was collected by centrifugation at 1500 g for 5 min, washed 2 times with 2 PBS and centrifuged at 350 g. The cells were collected in a 1.5 mL centrifuge tube. 10 mL of 0.2 nM PR005565, PR006155 or PR006166 solution was prepared. The total cells were supplemented with 0.2 nM PR005565, PR006155 or PR006166 solution to 0.82 mL, and diluted in a 2-fold gradient with 0.2 nM PR005565, PR006155 or PR006166 as a buffer. […]
For orientation: In KinExA the mixture passes briefly over coated beads that capture the unbound partner.

T1 sequence (P51512 120-607): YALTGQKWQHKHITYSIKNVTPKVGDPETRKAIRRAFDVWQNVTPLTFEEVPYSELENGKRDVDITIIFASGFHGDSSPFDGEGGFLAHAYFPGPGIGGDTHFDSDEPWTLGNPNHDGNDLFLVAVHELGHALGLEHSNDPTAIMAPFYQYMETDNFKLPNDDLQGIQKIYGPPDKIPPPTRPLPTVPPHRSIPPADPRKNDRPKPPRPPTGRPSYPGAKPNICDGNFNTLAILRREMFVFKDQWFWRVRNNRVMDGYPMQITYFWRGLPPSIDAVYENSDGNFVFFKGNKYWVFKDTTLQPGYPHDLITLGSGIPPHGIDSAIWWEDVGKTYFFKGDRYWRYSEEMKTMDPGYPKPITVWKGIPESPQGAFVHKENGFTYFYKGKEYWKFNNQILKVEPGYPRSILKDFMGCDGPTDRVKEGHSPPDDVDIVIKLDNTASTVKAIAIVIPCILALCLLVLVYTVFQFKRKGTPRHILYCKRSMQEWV
T5 sequence (P51685 whole entry): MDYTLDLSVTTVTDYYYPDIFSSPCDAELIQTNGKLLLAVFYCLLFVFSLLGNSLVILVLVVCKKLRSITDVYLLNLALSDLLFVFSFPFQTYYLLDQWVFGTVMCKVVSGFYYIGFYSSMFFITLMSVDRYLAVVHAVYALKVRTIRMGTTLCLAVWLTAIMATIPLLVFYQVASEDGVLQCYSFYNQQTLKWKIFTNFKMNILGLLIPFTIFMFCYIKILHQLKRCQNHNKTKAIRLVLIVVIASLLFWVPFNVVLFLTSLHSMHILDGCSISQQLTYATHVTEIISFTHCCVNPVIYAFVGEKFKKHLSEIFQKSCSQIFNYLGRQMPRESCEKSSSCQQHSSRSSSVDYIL

B1: PR005565 (antibody, human IgG1, kappa)
heavy: not shown
light: DIVMTQSPLSLPVTLGQPASISCRSSKSLLHSNAKIYLYWFQQRPGQSPRLLIYRMSNLASGVPDRFSGSGSGTDFTLKISRVEAEDVGVYYCMQHLEYPLTFGQGTKLEIKRTVAAPSVFIFPPSDEQLKSGTASVVCLLNNFYPREAKVQWKVDNALQSGNSQESVTEQDSKDSTYSLSSTLTLSKADYEKHKVYACEVTHQGLSSPVTKSFNRGEC
notes: IgG1 constant region; same VH/VL as PR004666
B1: the MFI with MMP16 [1] turned out to be 146; in the assay with CD40LG [2], 241; with TSPAN12-FLAG [6] it was 219. Moreover, the binding result with TSPAN4-FLAG, in the assay with TSPAN12-FLAG [3], in the assay with MMP16 [4] and with CD40LG [5] was “no binding” throughout. Also, the Kd – broadly, the equilibrium constant for the complex coming apart – in the assay with human CCR8 is 130 pM.
